This note sets out measurements from patent US5618693, “Interleukin-2 signal transducers and binding assays” (Tularik, Inc.).

The data set has as its target hStat 5 (affinity purified, 98/94/88 kD from YT cells; 96/95 kD from PBLs) (Homo sapiens, UniProt P42229 SEQ:1-794). The experiment in a line: pulldown; biotinylated DNA on streptavidin agarose, buffer C, 4 C; retained through wash with mutant oligo 0.2 mg/ml, eluted 0.35 M NaCl. The following applies: tags: native, tyrosine phosphorylated; chain copies: 2. As for the experimental part: After dialysis, insoluble proteins were removed by centrifugation and the remaining material was chromatographed over a 100 ml S-Sepharose (Pharmacia) column. Protein flow-through was mixed with a DNA-affinity resin prepared by coupling synthetic, biotinylated DNA corresponding to the IL-4 response element of the gene encoding FcgRI (5'-[…]-3) (SEQ ID NO:3) to streptavidin agarose (Sigma). After binding (2 hours at 4° C.), the affinity matrix was placed on a disposable column and washed sequentially with 10 ml of buffer C, 4 ml of buffer C supplemented with a mutated variant of the IL-4 response element (5'-GTATCACCAGTCAAGGAAC-3') (SEQ ID NO:4) at 0.2 mg/ml, and 10 ml of buffer C. Protein was eluted by exposure to buffer C supplemented with 0.35M NaCl, dialyzed against buffer C, and placed on a 0.5 ml Q-Sepharose (Pharmacia) column. The column was washed with 5 ml of buffer C and protein was eluted with 1 ml of buffer C supplemented with 0.35M NaCl.

hStat 5 (affinity purified, 98/94/88 kD from YT cells; 96/95 kD from PBLs), sequence (P42229 whole entry): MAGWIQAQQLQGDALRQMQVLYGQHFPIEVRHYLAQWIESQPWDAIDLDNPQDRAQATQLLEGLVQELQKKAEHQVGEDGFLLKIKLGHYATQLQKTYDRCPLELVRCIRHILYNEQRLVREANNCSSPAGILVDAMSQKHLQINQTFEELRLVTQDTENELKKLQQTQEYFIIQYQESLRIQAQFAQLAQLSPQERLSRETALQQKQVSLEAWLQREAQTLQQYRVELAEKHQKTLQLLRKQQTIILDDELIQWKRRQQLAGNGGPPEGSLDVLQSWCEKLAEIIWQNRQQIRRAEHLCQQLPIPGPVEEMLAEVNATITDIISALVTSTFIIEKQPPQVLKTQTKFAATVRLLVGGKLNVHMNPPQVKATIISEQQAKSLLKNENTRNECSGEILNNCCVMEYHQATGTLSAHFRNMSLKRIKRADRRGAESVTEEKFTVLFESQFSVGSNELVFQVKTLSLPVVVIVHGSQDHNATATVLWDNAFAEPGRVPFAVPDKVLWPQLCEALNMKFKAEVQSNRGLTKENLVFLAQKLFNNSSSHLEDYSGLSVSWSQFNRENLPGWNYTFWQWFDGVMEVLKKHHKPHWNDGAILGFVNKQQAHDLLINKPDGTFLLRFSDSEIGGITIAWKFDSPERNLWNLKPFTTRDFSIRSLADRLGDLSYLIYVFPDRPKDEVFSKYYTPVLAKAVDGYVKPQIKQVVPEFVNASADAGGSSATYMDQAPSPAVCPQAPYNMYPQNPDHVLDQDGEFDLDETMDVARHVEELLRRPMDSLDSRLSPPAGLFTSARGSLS

B1: FcgRI IL-4 response element probe (dsDNA)
DNA 1: GTATTTCCCAGAAAAGGAAC
DNA 2: GTTCCTTTTCTGGGAAATAC
Take B1: the binding result is “binds”.
